{"source": "patent US6733762", "key": {"[1]": {"biological_target": "Zot receptor / Zot binding sites on human monocytes/macrophages (CD14+) (human)"}, "[2]": {"biological_target": "Zot binding sites on human T lymphocytes (CD3+) (human)"}, "[3]": {"biological_target": "Zot receptor / Zot binding sites on human monocytes/macrophages (CD14+) (human)", "remark": "listed apart in the source"}, "[4]": {"biological_target": "Zot receptor / Zot binding sites on human monocytes/macrophages (CD14+) (human)", "assay": "4-color flow cytometry, Zot-FITC 40 ug/ml on PBMC; reference: T or B lymphocytes"}, "[5]": {"biological_target": "Zot binding sites on human T lymphocytes (CD3+) (human)", "assay": "real-time flow cytometry at 37 C, Zot-FITC 40 ug/ml, cells gated on CD3"}, "[6]": {"biological_target": "Zot binding sites on human T lymphocytes (CD3+) (human)", "assay": "flow cytometry, MESF calibration, several volunteers"}, "[7]": {"biological_target": "Zot receptor / Zot binding sites on human monocytes/macrophages (CD14+) (human)", "assay": "flow cytometry, MESF calibration, several volunteers"}, "[8]": {"biological_target": "Zot receptor / Zot binding sites on human monocytes/macrophages (CD14+) (human)", "assay": "flow cytometry, MESF calibration, several volunteers; reference: lymphocytes"}, "[9]": {"biological_target": "Zot receptor / Zot binding sites on human monocytes/macrophages (CD14+) (human)", "assay": "real-time flow cytometry at 37 C, Zot-FITC 40 ug/ml, cells gated on CD14"}, "[10]": {"biological_target": "Zot binding sites on human T lymphocytes (CD3+) (human)", "assay": "flow cytometry, MFI converted with Quantum 26 MESF kit, saturation conditions"}, "[11]": {"biological_target": "Zot receptor / Zot binding sites on human monocytes/macrophages (CD14+) (human)", "assay": "flow cytometry, MFI converted with Quantum 26 MESF kit, saturation conditions"}}, "note": "Several values for one entry are separate records, joined by “and”; a condition that tells them apart may be missing. Equal entries are not always repeated.", "data": [{"substance": "6xHis-Zot fusion protein (unlabeled) (from UniProt P38442 1-399)", "values": [{"measurement": "% suppression of Zot-FITC mean fluorescence intensity", "setting": "[1]", "result": "24% and 43%"}]}, {"substance": "purified Zot (cleaved from the MBP-Zot fusion protein with Factor Xa) (from UniProt P38442 9-399)", "values": [{"measurement": "% decrease of Zot-FITC binding", "setting": "[2]", "result": 33, "unit": "%"}, {"measurement": "% decrease of Zot-FITC binding", "setting": "[3]", "result": 33, "unit": "%"}]}, {"substance": "Zot-FITC (6xHis-Zot conjugated to fluorescein isothiocyanate, Examples 4-7) (from UniProt P38442 1-399)", "values": [{"measurement": "fold of binding against T or B lymphocytes", "setting": "[4]", "result": "5 fold and 8 fold"}, {"measurement": "time to reach binding equilibrium", "setting": "[5]", "result": "< 2", "unit": "min"}, {"measurement": "Zot binding sites/cell (mean of several volunteers) (binding sites/cell)", "setting": "[6]", "result": 10700}, {"measurement": "Zot binding sites/cell (mean of several volunteers) (binding sites/cell)", "setting": "[7]", "result": 105000}, {"measurement": "fold of binding sites/cell against lymphocytes", "setting": "[8]", "result": 10, "unit": "fold"}, {"measurement": "time to reach binding equilibrium", "setting": "[9]", "result": "< 2", "unit": "min"}, {"measurement": "Zot-binding sites/cell (binding sites/cell)", "setting": "[10]", "result": 9000}, {"measurement": "Zot-binding sites/cell (binding sites/cell)", "setting": "[11]", "result": 106000}]}]}
